Measured values as given in the supplement of paper PMC10567573.

B1: SCARA5 (parent)
chain: VTEDLRLKDWEHSIALRNISLAKG

Variants of: B1
Assay: protein stability index of a GFP-peptide fusion (GPS, HEK-293T) (PSI 1-6); higher = more stable
Conditions: c terminus: a fixed tail appended
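Also: lentivirally expressed fusions sorted by FACS into six bins by GFP to DsRed ratio, PSI derived from sequencing read proportions per bin multiplied by bin number.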

Point of comparison: VTEDLRLKDWEHSIAKRNISLAKG [L16K], protein stability index 3.77. Against it:
- VTEDLRLKDWEHSIALRNNSLAKG [I19N] — the same, 3.77
- VTEDLRLKDWEHSIALRNESLAKG [I19E] — higher, 4.44
- VTEDLRLKDWEHSIALRNRSLAKG [I19R] — higher, 4.25
- VTEDLRLKDWEHSIALRNMSLAKG [I19M] — lower, 3.3
- VTEDLRLKDWEHSIALRNPSLAKG [I19P] — higher, 3.9
- VTEDLRLKDWEHSIALRNSSLAKG [I19S] — higher, 3.98
- VTEDLRLKDWEHSIALRNDSLAKG [I19D] — higher, 4.54
- VTEDLRLKDWEHSIALRNHSLAKG [I19H] — lower, 3.69
- VTEDLRLKDWEHSIALRNCSLAKG [I19C] — higher, 4.27
- VTEDLRLKDWEHSIALRNYSLAKG [I19Y] — lower, 3.22
- VTEDLRLKDWEHSIALRNTSLAKG [I19T] — higher, 3.93
- VTEDLRLKDWEHSIALRNFSLAKG [I19F] — lower, 3
- VTEDLRLKDWEHSIALRNGSLAKG [I19G] — higher, 3.99
- VTEDLRLKDWEHSIALRNKSLAKG [I19K] — higher, 4.39
- VTEDLRLKDWEHSIALRNWSLAKG [I19W] — lower, 2.62
- VTEDLRLKDWEHSIALRNASLAKG [I19A] — lower, 3.71
- VTEDLRLKDWEHSIALRNLSLAKG [I19L] — lower, 3.05
- VTEDLRLKDWEHSIALRNVSLAKG [I19V] — lower, 3.74
- VTEDLRLKDWEHSIALRNQSLAKG [I19Q] — higher, 4.44
- VTEDLRLKDWEHSIALRNISKAKG [L21K] — higher, 4.37
- VTEDLRLKDWEHSIALRNISWAKG [L21W] — lower, 3.08
- VTEDLRLKDWEHSIALRNISHAKG [L21H] — higher, 4.07
- VTEDLRLKDWEHSIALRNISYAKG [L21Y] — lower, 3.48
- VTEDLRLKDWEHSIALRNISMAKG [L21M] — lower, 3.68
- VTEDLRLKDWEHSIALRNISNAKG [L21N] — higher, 4.08
- VTEDLRLKDWEHSIALRNISPAKG [L21P] — higher, 4.11
- VTEDLRLKDWEHSIALRNISGAKG [L21G] — higher, 4.03
- VTEDLRLKDWEHSIALRNISVAKG [L21V] — lower, 3.5
- VTEDLRLKDWEHSIALRNISQAKG [L21Q] — lower, 3.65
- VTEDLRLKDWEHSIALRNISCAKG [L21C] — higher, 3.84
- VTEDLRLKDWEHSIALRNISEAKG [L21E] — higher, 4.4
- VTEDLRLKDWEHSIALRNISFAKG [L21F] — lower, 3.48
- VTEDLRLKDWEHSIALRNISTAKG [L21T] — higher, 4.23
- VTEDLRLKDWEHSIALRNISDAKG [L21D] — higher, 4.8
- VTEDLRLKDWEHSIALRNISRAKG [L21R] — lower, 3.56
- VTEDLRLKDWEHSIALRNISAAKG [L21A] — higher, 4.15
- VTEDLRLKDWEHSIALRNISSAKG [L21S] — higher, 3.85
- VTEDLRLKDWEHSIALRNISIAKG [L21I] — lower, 3.19
- VTEDLRLKDWEHSIVLRNISLAKG [A15V] — lower, 2.34
- VTEDLRLKDWEHSIILRNISLAKG [A15I] — lower, 2.59
- VTEDLRLKDWEHSITLRNISLAKG [A15T] — lower, 3.64
- VTEDLRLKDWEHSISLRNISLAKG [A15S] — lower, 3.66
- VTEDLRLKDWEHSINLRNISLAKG [A15N] — lower, 3.42
- VTEDLRLKDWEHSIRLRNISLAKG [A15R] — lower, 2.74
- VTEDLRLKDWEHSIPLRNISLAKG [A15P] — lower, 3.54
- VTEDLRLKDWEHSIYLRNISLAKG [A15Y] — lower, 2.39
- VTEDLRLKDWEHSIKLRNISLAKG [A15K] — lower, 2.98
- VTEDLRLKDWEHSIMLRNISLAKG [A15M] — lower, 3.27
- VTEDLRLKDWEHSIQLRNISLAKG [A15Q] — lower, 3.59
- VTEDLRLKDWEHSILLRNISLAKG [A15L] — lower, 2.63
- VTEDLRLKDWEHSIWLRNISLAKG [A15W] — lower, 2.46
- VTEDLRLKDWEHSIALRNIHLAKG [S20H] — lower, 3.04
- VTEDLRLKDWEHSIALRNITLAKG [S20T] — lower, 2.86
- VTEDLRLKDWEHSIALRNIPLAKG [S20P] — higher, 3.91
- VTEDLRLKDWEHSIALRNIALAKG [S20A] — higher, 3.81
- VTEDLRLKDWEHSIALRNIRLAKG [S20R] — lower, 3.23
- VTEDLRLKDWEHSIALRNIQLAKG [S20Q] — lower, 3.54
- VTEDLRLKDWEHSIALRNIKLAKG [S20K] — lower, 2.94
- VTEDLRLKDWEHSIALRNIWLAKG [S20W] — lower, 3.15
- VTEDLRLKDWEHSIALRNIYLAKG [S20Y] — lower, 2.56
- VTEDLRLKDWEHSIALRNILLAKG [S20L] — lower, 3.37
- VTEDLRLKDWEHSIALRNIFLAKG [S20F] — lower, 3.17
- VTEDLRLKDWEHSIALRNIGLAKG [S20G] — lower, 3.66
- VTEDLRLKDWEHSIALRNIDLAKG [S20D] — lower, 3.67
- VTEDLRLKDWEHSIALRNICLAKG [S20C] — lower, 3.21
- VTEDLRLKDWEHSIALRNINLAKG [S20N] — lower, 3.54
- VTEDLRLKDWEHSIALRNIVLAKG [S20V] — lower, 3.56
- VTEDLRLKDWEHSIALRNIILAKG [S20I] — lower, 2.15
- VTEDLRLKDWEHSIALRNIELAKG [S20E] — lower, 2.36
- VTEDLRLKDWEHSIALRNIMLAKG [S20M] — lower, 3.24
- VTEDLRLKDWEHSIAVRNISLAKG [L16V] — higher, 3.98
- VTEDLRLKDWEHSIAHRNISLAKG [L16H] — lower, 3.45
- VTEDLRLKDWEHSIAFRNISLAKG [L16F] — lower, 3.1
- VTEDLRLKDWEHSIAYRNISLAKG [L16Y] — lower, 3.14
- VTEDLRLKDWEHSIACRNISLAKG [L16C] — lower, 3.37
- VTEDLRLKDWEHSIAPRNISLAKG [L16P] — higher, 4.52
- VTEDLRLKDWEHSIASRNISLAKG [L16S] — higher, 4.21
- VTEDLRLKDWEHSIADRNISLAKG [L16D] — higher, 4.32
- VTEDLRLKDWEHSIANRNISLAKG [L16N] — higher, 4.12
- VTEDLRLKDWEHSIATRNISLAKG [L16T] — higher, 3.81
- VTEDLRLKDWEHSIAARNISLAKG [L16A] — lower, 3.71
- VTEDLRLKDWEHSIAERNISLAKG [L16E] — lower, 3.73
- VTEDLRLKDWEHSIAWRNISLAKG [L16W] — lower, 2.91
- VTEDLRLKDWEHSIARRNISLAKG [L16R] — lower, 3.4
- VTEDLRLKDWEHSIAMRNISLAKG [L16M] — lower, 3.45
- VTEDLRLKDWEHSIAQRNISLAKG [L16Q] — higher, 4.06
- VTEDLRLKDWEHSIAIRNISLAKG [L16I] — lower, 3.42
- VTEDLRLKDWEHSIAGRNISLAKG [L16G] — higher, 4
- VTEDLRLKDWEHSIALREISLAKG [N18E] — lower, 3.68
- VTEDLRLKDWEHSIALRQISLAKG [N18Q] — lower, 2.93
- VTEDLRLKDWEHSIALRIISLAKG [N18I] — lower, 2.47
- VTEDLRLKDWEHSIALRTISLAKG [N18T] — lower, 3.58
- VTEDLRLKDWEHSIALRHISLAKG [N18H] — lower, 2.96
